Source: patent US20210324096A1 (Genmab, published 2021)

Experiments:
[1] = molecular target: T1, murine (Mus musculus) DR5, full-length (mouse, UniProt Q9QZM4 53-381); assay: flow cytometry on transfected CHO cells (FIG. 5D)
T1 construct: also called mouse DR5

DR5ECD-FcHistag [2] = molecular target: T2, DR5ECD-FcHistag (human); assay: crossblock sandwich ELISA, antibody coated, competitor IgG1-hDR5-01-E430G
T2 construct: 453 is the counted length of the printed entry; also called DR5ECD-FcHisCtag; DRSECD-FcHistag

[3] = molecular target: T3, cynomolgus monkey DR5 protein with deletion of amino acids 185-213 and death domain loss-of-function mutation … (cynomolgus monkey (Macaca fascicularis)); assay: flow cytometry on cynomolgus DR5-transfected CHO cells, four experiments (SD 0.084)
T3 construct: Transiently expressed on CHO cells; also called Cyno DR5Mfdel-K420N; cynomolgus DR5-transfected CHO
T3 chain: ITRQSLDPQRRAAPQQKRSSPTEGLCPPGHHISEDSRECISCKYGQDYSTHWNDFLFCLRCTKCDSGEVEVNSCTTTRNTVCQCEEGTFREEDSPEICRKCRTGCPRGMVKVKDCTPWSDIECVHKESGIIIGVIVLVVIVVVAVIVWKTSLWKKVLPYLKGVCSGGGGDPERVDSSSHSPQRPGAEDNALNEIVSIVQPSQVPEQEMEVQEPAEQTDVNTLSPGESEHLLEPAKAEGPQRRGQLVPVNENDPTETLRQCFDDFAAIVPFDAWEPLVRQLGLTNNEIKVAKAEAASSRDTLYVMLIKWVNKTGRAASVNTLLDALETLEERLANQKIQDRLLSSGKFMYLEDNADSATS

[4] = molecular target: T4, human DR5 (death receptor 5), full-length (human, UniProt O14763 56-440); assay: flow cytometry on HCT 116 cells
T4 construct: also called TRAILR2; CD262

DR5ECD-FcHistag [5] = molecular target: T2, DR5ECD-FcHistag; assay: crossblock sandwich ELISA, antibody coated, competitor IgG1-DR5-CONA-K409R
DR5ECD-FcHistag [6] = molecular target: T2, DR5ECD-FcHistag; assay: crossblock sandwich ELISA, antibody coated, competitor IgG1-DR5-chTRA8-F405L

B1: IgG1-hDR5-05-F405L (antibody, name in EU numbering)
heavy: not shown
light: DIQLTQSPSSLSASVGDRVTITCSASSSVSYMYWYQQKPGKAPKPWIYRTSNLASGVPSRFSGSGSGTDFTLTISSLQPEDFATYYCQQYHSYPPTFGGGTKVEIKRTVAAPSVFIFPPSDEQLKSGTASVVCLLNNFYPREAKVQWKVDNALQSGNSQESVTEQDSKDSTYSLSSTLTLSKADYEKHKVYACEVTHQGLSSPVTKSFNRGEC
notes: IgG1,kappa; F405L is counted by EU numbering, not on the entry; also called humanized DR5-05
Question: Does B1 bind [1]?
Answer: no binding (tested: 10 µg/mL)

B2: IgG1-hDR5-05-E430G (antibody)
heavy: not shown
light: B1 light
notes: IgG1,kappa
Question: Does B2 bind (DR5ECD-FcHistag [2])?
Answer: binds

Question: What about the EC50 [3] of the same binder?
Answer: 0.17 µg/mL

B3: IgG1-hDR5-05-N55D-F405L (antibody, V domains shown)
VH: QVQLVQSGAEVKKPGASVKVSCKASGFNIKDTHMHWVRQAPGQRLEWIGRIDPADGNTEYDQKFQGRVTITVDTSASTAYMELSSLRSEDTAVYYCARWGTNVYFAYWGQGTLVTVSS
VL: DIQLTQSPSSLSASVGDRVTITCSASSSVSYMYWYQQKPGKAPKPWIYRTSNLASGVPSRFSGSGSGTDFTLTISSLQPEDFATYYCQQYHSYPPTFGGGTKVEIKR
notes: IgG1,kappa; deamidation-mimicking variant
Question: Does B3 bind [4]?
Answer: binds

B4: IgG1-DR5-chTRA8-F405L (antibody, name in EU numbering, V domains shown)
VH: EVMLVESGGGLVKPGGSLKLSCAASGFTFSSYVMSWVRQTPEKRLEWVATISSGGSYTYYPDSVKGRFTISRDNAKNTLYLQMSSLRSEDTAMYYCARRGDSMITTDYWGQGTTLTVSS
VL: DIVMTQSHKFMSTSVGDRVSITCKASQDVGTAVAWYQQKPGQSPKLLIYWASTRHTGVPDRFTGSGSGTDFTLTISNVQSEDLADYFCQQYSSYRTFGGGTKLEIKR
notes: F405L is counted by EU numbering; also called IgG1-chTRA8-F405L
Question: Does B4 bind (DR5ECD-FcHistag [5])?
Answer: binds

B5: IgG1-DR5-CONA-K409R (antibody, V domains shown)
VH: QVQLQESGPGLVKPSQTLSLTCTVSGGSISSGDYFWSWIRQLPGKGLECIGHIHNSGTTYYNPSLKSRVTISVDTSKKQFSLRLSSVTAADTAVYYCARDRGGDYYYGMDVWGQGTTVTVSS
VL: EIVLTQSPGTLSLSPGERATLSCRASQGISRSYLAWYQQKPGQAPSLLIYGASSRATGIPDRFSGSGSGTDFTLTISRLEPEDFAVYYCQQFGSSPWTFGQGTKVEIK
notes: Expressed as IgG1,kappa with K409R (EU); also called IgG1-CONA-K409R; conatumumab variant
Question: Does B5 bind (DR5ECD-FcHistag [6])?
Answer: binds
